Reference: patent US20210040181A1 (Bristol-Myers Squibb, published 2021)

Assays:
EGFR 525-Fc (human) = EGFR 525-Fc (human) (UniProt P00533); experiment: direct binding ELISA, single point; clone captured by anti-His, 50 nM receptor-Fc, anti-human Fc HRP
[1] = biological target: EGFR-Fc (R&D Systems), ectodomain of human EGFR as a Fc fusion (human) (UniProt P00533); experiment: as above
[2] = biological target: T1, EGFR-Fc (R&D Systems), ectodomain of human EGFR as a Fc fusion (human, UniProt P00533 25-645); experiment: as above
T1 construct: extracellular domain; Bought from R&D Systems; also called EGFR-FL-Fc; full length EGFR Fc fusion protein; not shown: Fc of the purchased fusion
Method: Proteins encoded by independent clones were analyzed for binding to the full length ectodomain of EGFR as well as a truncated version containing the first 525 amino acids (EGFR 525) of the EGFR ectodomain in single point direct binding assays. Anti-His antibodies were used to capture protein clones in an oriented fashion followed by incubation with full length EGFR or EGFR 525 Fc fusion proteins. Bound receptor-Fcs were detected via anti-human Fc HRP conjugate with a chromogenic readout (i.e. A450). […] The SGE control is the ¹⁰FN3 domain as shown in SEQ ID NO: 1 with the integrin binding domain (RGD) substituted with amino acids SGE.
The protein populations resulting from the above selections are expressed in E. coli as His6 tagged proteins. The direct binding ELISA relies on the oriented capture of His6 tagged clones onto anti-His monoclonal antibody plates (EMD Biosciences, San Diego, Calif.) blocked with casein block buffer (Pierce, Rockford, Ill.) for 1-2 hrs. Typically a 1:50 dilution of HTPP material (0.2-2 ug) is captured for 1 hr, followed by incubation with 50 nM of the EGFR-Fc targets. Bound EGFR-Fcs are detected by incubation with anti-human HRP. Bound HRP conjugate is detected using the colorimetric substrate TMB (BD Biosciences, San Jose, Calif.) following the manufacturer's instructions.

[3] = biological target: T2, EGFR on the surface of human A431 cells (human, UniProt P00533 25-1210); experiment: competition with 10 nM Eu-EGF on A431 cells, time resolved fluorescence; Midscale preparation
T2 construct: whole, on cells; also called HER-1; EGF receptor on cells
Method: (§1) Human epithelial carcinoma cells, clone A431, which express large numbers of EGFRs on the cell surface, are plated into 96 well tissue culture plates and allowed to adhere for 48 hours. The cells are washed with serum free media and dilutions of the selected clones are incubated with the cells for 15 minutes, 37° C. in a humidified incubator in 5% CO₂. This incubation allows binding of the clone to the EGFR on the cell surface.

[4] = biological target: T2, EGFR on the surface of human A431 cells; experiment: cell-based or functional assay
[5] = biological target: T2, EGFR on the surface of human A431 cells; experiment: competition with 10 nM Eu-EGF on A431 cells, time resolved fluorescence; protein diluted in PBS buffer
Method: as §1

[6] = biological target: T2, EGFR on the surface of human A431 cells; experiment: competition with 10 nM Eu-EGF on A431 cells, time resolved fluorescence; protein diluted in Tris buffer
Method: as §1

[7] = biological target: T2, EGFR on the surface of human A431 cells; experiment: cell-based competitive ligand binding assay on A431 cells, competitor Eu-EGF, time-resolved fluorescence (RFUs); parameter C of the four-parameter fit y = ((A - D)/(1 + (x/C)^B)) + D, x axis in nM; the legend calls C the IC50 but prints 258.258
Method: as §1

A450 (EGFR 525-Fc (human)) [A450] | A450 [2] [A450] | Molecule | other results
2.41 | 2.77 | 867B09 (designed binder, 10Fn3-based clone expressed in E. coli as His6 tagged protein; not shown: His6 tag) VSDVPRDLEVVAATPTSLLISWYLSHSYMRYYRITYGETGGNSPVQEFTVPVIHYTATISGLKPGVDYTITVYAVTSDKISVTVSGPISINYRT | –
1.57 | 1.95 | 867C04 (designed binder, 10Fn3-based clone expressed in E. coli as His6 tagged protein; not shown: His6 tag) VSDVPRDLEVVAATPTSLLISWESKYVNYRYYRITYGETGGNSPVQEFTVPHLMTATISGLKPGVDYTITVYAVTVGGDHMYSSLPISINYRT | –
2.55 | 2.96 | 867B10 (designed binder, 10Fn3-based clone expressed in E. coli as His6 tagged protein; not shown: His6 tag) VSDVPRDLEVVAATPTSLLISWKSVYVDYRYYRITYGETGGNSPVQEFTVPHSNLTATISGLKPGVDYTITVYAVTVYESYVANDSPISINYRT | –
2.45 | 2.37 | 679F03 (designed binder, 10Fn3-based clone expressed in E. coli as His6 tagged protein; not shown: His6 tag) VSDVPRDLEVVAATPTSLLISWYHYYSGSQRYYRITYGETGGNSPVQEFTVPHEVYTATISGLKPGVDYTITVYAVTDYAYKEYEEYPISINYRT | IC50 [3]: 26.8 nM
1.79 | 1.9 | 867H08 (designed binder, 10Fn3-based clone expressed in E. coli as His6 tagged protein; not shown: His6 tag) VSDVPRDLEVVAATPTSLLISWLRVPAYDRYYRITYGETGGNSPVQEFTVPDVPWTATISGLKPGVDYTITVYAVTLDESDMRVGVPISINYRT | –
0.539 | 0.213 | 679B01 (designed binder, 10Fn3-based clone expressed in E. coli as His6 tagged protein; not shown: His6 tag) VSDVPRDLEVVAATPTSLLISWLLLGAPCRYYRITYGETGGNSPVQEFTVPWMGLTATISGLKPGVDYTITVYAVTSERAPCVKVWRCPISINYRT | –
1.61 | 1.87 | 867A05 (designed binder, 10Fn3-based clone expressed in E. coli as His6 tagged protein; not shown: His6 tag) VSDVPRDLEVVAATPTSLLISWYYRKYPGRYYRITYGETGGNSPVQEFTVPDEHTTATISGLKPGVDYTITVYAVTYDSPSQPISINYRT | –

Second part, the molecule before the results:

Molecule | A450 (EGFR 525-Fc (human)) [A450] | A450 [2] [A450] | other results
SGE control (10FN3 domain of SEQ ID NO: 1 with RGD substituted with SGE) (designed binder) | 0.139 | – | A450 [1]: 0.143 A450
867E05 (designed binder, 10Fn3-based clone expressed in E. coli as His6 tagged protein; not shown: His6 tag) VSDVPRDLEVVAATPTSLLISWNRHAMASRYYRITYGETGGNSPVQEFTVPDVPFTATISGLKPGVDYTITVYAVTMSDKAMDMRTPSIGPISINYRT | 1.68 | 1.72 | –
679C10 (designed binder, 10Fn3-based clone expressed in E. coli as His6 tagged protein; not shown: His6 tag) VSDVPRDLEVVAATPTSLLISWSRYAPGGRYYRITYGETGGNSPVQEFTVPDVPWTATISGLKPGVDYTITVYAVTLSNYEYLARNPISINYRT | 0.803 | 0.467 | –
679A05 (designed binder, 10Fn3-based clone expressed in E. coli as His6 tagged protein; not shown: His6 tag) VSDVPRDLEVVAATPTSLLISWARYAECGRYYRITYGETGGNSPVQEFTVPDVPWTATISGLKPGVDYTITVYAVTLGKPPLPGWVSGLDPISINYRT | 1.72 | 1.43 | –
679B10 (designed binder, 10Fn3-based clone expressed in E. coli as His6 tagged protein; not shown: His6 tag) VSDVPRDLEVVAATPTSLLISWRLTAPLGRYYRITYGETGGNSPVQEFTVPDIPFTATISGLKPGVDYTITVYAVTLSDSAHGGLRDVPISINYRT | 1.74 | 1.38 | –
867E02 (designed binder, 10Fn3-based clone expressed in E. coli as His6 tagged protein; not shown: His6 tag) VSDVPRDLEVVAATPTSLLISWIRRAKPGRYYRITYGETGGNSPVQEFTVPDVPWTATISGLKPGVDYTITVYAVTLDGVRRVGYLDHPISINYRT | 1.43 | 1.42 | –
679G06 (designed binder, 10Fn3-based clone expressed in E. coli as His6 tagged protein; not shown: His6 tag) VSDVPRDLEVVAATPTSLLISWYSDYYDNRYYRITYGETGGNSPVQEFTVPRYMMTATISGLKPGVDYTITVYAVTYSYHDPNPMMPISINYRT | 0.128 | 2.1 | –
679A10 (designed binder, 10Fn3-based clone expressed in E. coli as His6 tagged protein; not shown: His6 tag) VSDVPRDLEVVAATPTSLLISWDRMLSFLRYYRITYGETGGNSPVQEFTVPLIYPTATISGLKPGVDYTITVYAVTVQLLDQCLRIHGPISINYRT | 0.925 | 0.787 | –
867C07 (designed binder, 10Fn3-based clone expressed in E. coli as His6 tagged protein; not shown: His6 tag) VSDVPRDLEVVAATPTSLLISWHSNYVDYRYYRITYGETGGNSPVQEFTVPHISDITATISGLKPGVDYTITVYAVTVEDMVRESYPPISINYRT | 2.18 | 2.43 | –
867F10 (designed binder, 10Fn3-based clone expressed in E. coli as His6 tagged protein; not shown: His6 tag) VSDVPRDLEVVAATPTSLLISWHNTYKDYRYYRITYGETGGNSPVQEFTVPHMAYNTATISGLKPGVDYTITVYAVTVTMQALLYSIPISINYRT | 2.32 | 2.78 | –
679F09 (designed binder, 10Fn3-based clone expressed in E. coli as His6 tagged protein; also called clone 679F09; not shown: His6 tag) VSDVPRDLEVVAATPTSLLISWQVPRPMYQRYYRITYGETGGNSPVQEFTVPGGVRTATISGLKPGVDYTITVYAVTDYMHSEYRQYPISINYRT | 2.47 | 2.42 | EGF-stimulated EGFR phosphorylation on tyrosine 1068, A431 cells (In Cell Western), IC50 [4]: 2800 nM; EGF-stimulated EGFR phosphorylation on tyrosine 1068, DiFi cells (ELISA), IC50 [4]: 1490 nM; EGF-stimulated EGFR phosphorylation on tyrosine 1068, FaDu cells (In Cell Western), IC50 [4]: 1300 nM; EGF-stimulated ERK phosphorylation, A431 cells (In Cell Western), IC50 [4]: 3100 nM; EGF-stimulated ERK phosphorylation, DiFi cells (ELISA), IC50 [4]: > 4000 nM; EGF-stimulated ERK phosphorylation, FaDu cells (In Cell Western), IC50 [4]: 2000 nM; EGF-stimulated total EGFR phosphorylation, A431 cells (In Cell Western), IC50 [4]: 2400 nM; EGF-stimulated total EGFR phosphorylation, DiFi cells (ELISA), IC50 [4]: 5300 nM; IC50 [3]: 14.7 nM; IC50 [5]: 13 nM; IC50 [6]: 20 nM
867B08 (designed binder, 10Fn3-based clone expressed in E. coli as His6 tagged protein; not shown: His6 tag) VSDVPRDLEVVAATPTSLLISWSGSYKSYRYYRITYGETGGNSPVQEFTVPHYDHATATISGLKPGVDYTITVYAVTVDYTAVQVSYPISINYRT | 2.49 | 2.61 | –
679A01 (designed binder, 10Fn3-based clone expressed in E. coli as His6 tagged protein; not shown: His6 tag) VSDVPRDLEVVAATPTSLLISWARYAGSDRYYRITYGETGGNSPVQEFTVPDVPFTATISGLKPGVDYTITVYAVTMGHAPTVDIHWTPSPISINYRT | 1.53 | 1.57 | –
679B09 (designed binder, 10Fn3-based clone expressed in E. coli as His6 tagged protein; not shown: His6 tag) VSDVPRDLEVVAATPTSLLISWMRWYAPRRYYRITYGETGGNSPVQEFTVPFWQGTATISGLKPGVDYTITVYAVTRGQSGLGMPISINYRT | 0.375 | 0.455 | –
867A03 (designed binder, 10Fn3-based clone expressed in E. coli as His6 tagged protein; not shown: His6 tag) VSDVPRDLEVVAATPTSLLISWTYRHYPERYYRITYGETGGNSPVQEFTVPDPDSTATISGLKPGVDYTITVYAVTYNHSSTPISINYRT | 1.85 | 2.3 | –
867A01 (designed binder, 10Fn3-based clone expressed in E. coli as His6 tagged protein; not shown: His6 tag) VSDVPRDLEVVAATPTSLLISWQQQHTNYRYYRITYGETGGNSPVQEFTVPGRASTATISGLKPGVDYTITVYAVTEHPYYGDPPISINYRT | 0.137 | 1.4 | IC50 [7]: 258 nM
